# The supplement of paper PMC7877785
# ± gives the uncertainty stated by the source.
# Assay: self-splicing fitness, log relative to wild type (ln ratio); higher = more splicing; Tetrahymena group I intron in knt gene, E. coli kanamycin selection, DiMSum; sequences stand for … in CUCUCU…GGAGGGAAAAGUUAUCAGGCAUGCACCUGGUAGCUAGUCUUUAAACCAAUAGAUUGCAUCGGUUUAAAAGGCAAGACCGUCAAAUUGCGGGAAAGGGGUCAACAGCCGUUCAGUACCAAGUCUCAGGGGAAACUUUGAGAUGGCCUUGCAAAGGGUAUGGUAAUAAGCUGACGGACAUGGUCCUAACCACGCAGCCAAGUCCUAAGUCAACAGAUCUUCUGUUGAUAUGGAUGCAGUUCACAGACUAAAUGUCGGUCGGGGAAGAUGUAUUCUUCUCAUAAGAUAUAGUCGGACCUCUCCUUAAUGGGAGCUAGCGGAUGAAGUGAUGCAACACUGGAGCCGCUGGGAACUAAUUUGUAUGCGAAAGUAUAUUGAUUAGUUUUGGAGUACUCGUGGUCG
# Method in brief: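 Six replicate transformations of E. coli BL21(DE3) with a pET-22b(+) library were grown overnight at 37°C or 30°C. The library randomised all eight P1ex-region intron nucleotides, the intron lying in the knt kanamycin-resistance gene, and plates were LB agar with or without 25 μg/mL kanamycin plus 100 μg/mL carbenicillin, 50 μM IPTG and 0.2% rhamnose. Pooled colonies were amplicon-sequenced on an Illumina HiSeq 2500, and fitness is the DiMSum error-weighted combination of wild-type-normalised replicate fold changes, kanamycin versus none.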
Sequence,self-splicing fitness (ln) (30 °C),self-splicing fitness (ln) (37 °C)
GCGGAGCAAUAUUACGACCU,-0.927 ± 0.2,-1.02 ± 0.19
CUGAAGCAAUAUUACGCUCG,-0.21 ± 0.086,-0.613 ± 0.087
CGAAAGCAAUAUUACGAAGA,-2.12 ± 0.16,-0.849 ± 0.13
GGUCAGCAAUAUUACGGUCU,-1.28 ± 0.12,-0.217 ± 0.13
UGGAAGCAAUAUUACGGCUU,-2.94 ± 0.32,-1.73 ± 0.45
AGGUAGCAAUAUUACGGUUA,-0.977 ± 0.016,-0.509 ± 0.033
GUACAGCAAUAUUACGCUAC,–,-2.64 ± 0.48
CCAUAGCAAUAUUACGACAU,-3.882 ± 0.026,-2.93 ± 0.04
UCCUAGCAAUAUUACGUGCU,-3.5 ± 0.17,-1.8 ± 0.2
UGUCAGCAAUAUUACGGCCC,-1.78 ± 0.41,-0.199 ± 0.4
GAAUAGCAAUAUUACGCGAA,-3.09 ± 0.21,-1.96 ± 0.2
AGAGAGCAAUAUUACGCUUA,-2.39 ± 0.25,-1.32 ± 0.23
GAAUAGCAAUAUUACGAUUU,-1.74 ± 0.12,-0.649 ± 0.11
GUCAAGCAAUAUUACGUGGG,-3 ± 0.13,-2.23 ± 0.2
ACUAAGCAAUAUUACGAUCG,-0.981 ± 0.15,0.89 ± 0.18
ACACAGCAAUAUUACGCUAC,-3.73 ± 0.35,-2.63 ± 0.26
AGCAAGCAAUAUUACGCGUA,-1.83 ± 0.083,-0.167 ± 0.085
GUGGAGCAAUAUUACGUUUG,-3.31 ± 0.26,-2.79 ± 0.3
CGCCAGCAAUAUUACGCAUC,-3.71 ± 0.16,-2.74 ± 0.17
UGAGAGCAAUAUUACGUCAC,-2.08 ± 0.4,–
CUAGAGCAAUAUUACGGGUU,-4.2 ± 0.29,-2.33 ± 0.23
UUGUAGCAAUAUUACGGGUC,-3.03 ± 0.22,-2.83 ± 0.4
GGGGAGCAAUAUUACGGCGU,-1.31 ± 0.12,-1.08 ± 0.15
UCUAAGCAAUAUUACGGUUC,-3.4 ± 0.19,-2.39 ± 0.2
CACGAGCAAUAUUACGAUAC,-3.07 ± 0.24,-2.73 ± 0.36

Sequence,self-splicing fitness (ln) (30 °C),self-splicing fitness (ln) (37 °C)
ACCAAGCAAUAUUACGUCAA,-3.35 ± 0.17,-3 ± 0.16
AGUAAGCAAUAUUACGCUAG,-2.83 ± 0.24,-2.39 ± 0.23
GCCCAGCAAUAUUACGUGUG,-2.21 ± 0.08,-1.69 ± 0.081
CUGAAGCAAUAUUACGAUGG,-0.0919 ± 0.065,0.123 ± 0.095
CCGUAGCAAUAUUACGCGGU,-3.13 ± 0.27,-2.38 ± 0.3
CUCAAGCAAUAUUACGCCCU,-3.13 ± 0.44,-1.36 ± 0.36
CGCCAGCAAUAUUACGGCUU,-0.48 ± 0.07,-0.347 ± 0.08
GAUCAGCAAUAUUACGGCUG,-3.29 ± 0.19,-1.12 ± 0.16
AAGGAGCAAUAUUACGACCU,-0.0623 ± 0.16,-0.475 ± 0.2
CAUUAGCAAUAUUACGGCUA,-2.88 ± 0.29,-1.47 ± 0.15
AACUAGCAAUAUUACGCACU,-0.218 ± 0.084,-0.0139 ± 0.11
AUAGAGCAAUAUUACGAAUA,-4.03 ± 0.47,-2.1 ± 0.29
GGCAAGCAAUAUUACGAGAU,-2.56 ± 0.21,-0.168 ± 0.15
CGCGAGCAAUAUUACGAAGG,-2.81 ± 0.24,-2.64 ± 0.27
UGAUAGCAAUAUUACGGAGC,-3.26 ± 0.24,-3.25 ± 0.47
UAAAAGCAAUAUUACGAUGC,-3.82 ± 0.29,-2.3 ± 0.18
GAGCAGCAAUAUUACGUGGU,-3.66 ± 0.25,-2.25 ± 0.23
GGCCAGCAAUAUUACGGCUG,-1.41 ± 0.12,-0.562 ± 0.2
ACGGAGCAAUAUUACGUCUU,-2.7 ± 0.35,-2.06 ± 0.5
UGGAAGCAAUAUUACGCGGA,-1.17 ± 0.2,-1.88 ± 0.23
GAGGAGCAAUAUUACGCGAA,-2.67 ± 0.35,-2.05 ± 0.3
CCGCAGCAAUAUUACGAGGG,-1.99 ± 0.091,-2.71 ± 0.19
GCGCAGCAAUAUUACGACUU,-0.0557 ± 0.087,0.099 ± 0.093
CUUGAGCAAUAUUACGGCCA,-1.69 ± 0.23,-2.78 ± 0.36
UCAUAGCAAUAUUACGCAAG,-1.94 ± 0.15,-2.04 ± 0.2

Sequence,self-splicing fitness (ln) (30 °C),self-splicing fitness (ln) (37 °C)
UGGCAGCAAUAUUACGGCGA,0.0623 ± 0.12,0.97 ± 0.13
GUCCAGCAAUAUUACGAGAA,-0.724 ± 0.14,-0.763 ± 0.14
CCAAAGCAAUAUUACGCGAA,-2.8 ± 0.44,-2.5 ± 0.28
UCUUAGCAAUAUUACGAGAA,-2.37 ± 0.47,–
CUAGAGCAAUAUUACGAUAG,-0.96 ± 0.1,0.0398 ± 0.18
UUCCAGCAAUAUUACGGUGC,-1.9 ± 0.16,-1.23 ± 0.18
ACCCAGCAAUAUUACGAUUU,-0.881 ± 0.054,0.0888 ± 0.069
GUAUAGCAAUAUUACGACUA,-0.438 ± 0.21,0.00698 ± 0.23
AUCGAGCAAUAUUACGGGAC,-2.89 ± 0.27,-1.11 ± 0.19
UCCAAGCAAUAUUACGUUAU,-2.78 ± 0.18,-3.5 ± 0.37
AUGCAGCAAUAUUACGCCCG,-1.22 ± 0.2,-0.571 ± 0.29
CUCUAGCAAUAUUACGCUCG,-3.05 ± 0.25,-1.68 ± 0.23
GUGAAGCAAUAUUACGUUGG,-2.81 ± 0.13,-1.65 ± 0.12
GGAAAGCAAUAUUACGCUUU,–,-2.56 ± 0.3
UAGGAGCAAUAUUACGAAAC,-3.33 ± 0.42,-2.28 ± 0.5
AAGAAGCAAUAUUACGGCAA,-0.128 ± 0.096,-0.201 ± 0.13
UUAAAGCAAUAUUACGGGAU,-2.8 ± 0.14,-0.86 ± 0.12
CUUCAGCAAUAUUACGGAAA,-1.17 ± 0.18,-1.16 ± 0.15
UCCUAGCAAUAUUACGAUUC,–,-2.2 ± 0.29
CACUAGCAAUAUUACGAAGC,–,-2.83 ± 0.35
ACAUAGCAAUAUUACGAGAU,-4.08 ± 0.29,-2.66 ± 0.26
GUUCAGCAAUAUUACGUUUC,-0.965 ± 0.07,-0.339 ± 0.084
GCGUAGCAAUAUUACGAUAA,-0.962 ± 0.21,-0.707 ± 0.24
UCUGAGCAAUAUUACGUGGC,-3.1 ± 0.25,-1.94 ± 0.23
GUGCAGCAAUAUUACGUCCA,-1.53 ± 0.28,-0.793 ± 0.27

Sequence,self-splicing fitness (ln) (30 °C),self-splicing fitness (ln) (37 °C)
AUAAAGCAAUAUUACGAUCU,0.387 ± 0.11,0.308 ± 0.097
GAGAAGCAAUAUUACGCGAG,-1.75 ± 0.086,-0.918 ± 0.078
GUUCAGCAAUAUUACGGAGG,-2.38 ± 0.13,-1.22 ± 0.17
UACAAGCAAUAUUACGUCGC,-2.94 ± 0.11,-2.51 ± 0.14
AGUUAGCAAUAUUACGGCUU,-2.22 ± 0.23,-1.04 ± 0.22
CGUUAGCAAUAUUACGACGA,-1.36 ± 0.19,-1.3 ± 0.19
GGUCAGCAAUAUUACGUGUA,-0.892 ± 0.071,-0.855 ± 0.082
AGGAAGCAAUAUUACGAACC,-0.283 ± 0.29,-0.131 ± 0.3
UGUAAGCAAUAUUACGUUGA,-2.71 ± 0.18,-1.28 ± 0.16
UCUUAGCAAUAUUACGUGCG,-2.14 ± 0.15,-1.67 ± 0.2
CUACAGCAAUAUUACGUGGU,-3.31 ± 0.22,-3.03 ± 0.28
GAGCAGCAAUAUUACGCACC,-2.67 ± 0.39,-1.82 ± 0.48
CGUUAGCAAUAUUACGGACG,-4.39 ± 0.36,-2.23 ± 0.25
UAACAGCAAUAUUACGGACA,-0.353 ± 0.085,-0.527 ± 0.1
UCCAAGCAAUAUUACGUGGA,-2.9 ± 0.17,-3.47 ± 0.29
GUCUAGCAAUAUUACGUGAC,-3.73 ± 0.33,-0.257 ± 0.2
UCCCAGCAAUAUUACGAGUC,-3.66 ± 0.18,-1.56 ± 0.17
UUAGAGCAAUAUUACGUUUU,-3.39 ± 0.32,-2.3 ± 0.27
GCUUAGCAAUAUUACGGCAG,-4.61 ± 0.46,-2.63 ± 0.34
GAGAAGCAAUAUUACGUACA,-0.535 ± 0.066,-0.692 ± 0.077
GGCGAGCAAUAUUACGGUUU,-1.06 ± 0.076,0.0414 ± 0.11
UCACAGCAAUAUUACGGCUC,-2.9 ± 0.22,-1.87 ± 0.21
